Two molecules from patent US20080026996A1, “Selective Vpac2 Receptor Reptide Agonists” (ELI LILLY AND COMPANY, priority 2004, published 2008) can be followed below.

Where no end group is shown, it is not given here. [ ]: non-standard residue; d: D form. The star is where a group is joined. Hexanoyl = CCCCCC(=O)*; Aib = CC(C)(N)C(=O)O

In test [1] the target is T1, rat VPAC2 receptor (rat, UniProt P35000 23-437).
T1 construct: whole, on cells; transfected CHO-PO cells in DiscoveRx
T1 sequence (looked up): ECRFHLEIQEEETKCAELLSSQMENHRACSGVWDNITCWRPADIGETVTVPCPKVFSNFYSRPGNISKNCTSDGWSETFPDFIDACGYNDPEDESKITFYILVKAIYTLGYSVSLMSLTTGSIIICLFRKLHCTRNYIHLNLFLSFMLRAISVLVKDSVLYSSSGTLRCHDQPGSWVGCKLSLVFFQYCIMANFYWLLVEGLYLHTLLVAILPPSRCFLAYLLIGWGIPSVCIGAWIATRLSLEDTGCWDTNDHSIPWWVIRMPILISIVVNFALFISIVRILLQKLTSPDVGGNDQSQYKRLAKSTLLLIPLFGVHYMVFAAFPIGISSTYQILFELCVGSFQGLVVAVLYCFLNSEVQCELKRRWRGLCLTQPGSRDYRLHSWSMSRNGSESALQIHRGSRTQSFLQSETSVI
Kind of test: IC50 on rat VPAC1 over IC50 on rat VPAC2. From the text: Each assay is done in duplicate and performed on two different membrane preparations.
TABLE 3 Binding data are expressed as the IC₅₀ values of tracer inhibition. A different reference compound is used as the tracer for the VPAC1 receptor and for the VPAC2 receptor. The last column represents the ratio between the IC₅₀ values on VPAC1 and VPAC2 receptor and is, thus, an index of selectivity for a receptor subtype. […] The values are given with the standard error.

Test [2] has as its target T2, rat VPAC1 receptor (rat, UniProt P30083 31-459).
T2 sequence (looked up): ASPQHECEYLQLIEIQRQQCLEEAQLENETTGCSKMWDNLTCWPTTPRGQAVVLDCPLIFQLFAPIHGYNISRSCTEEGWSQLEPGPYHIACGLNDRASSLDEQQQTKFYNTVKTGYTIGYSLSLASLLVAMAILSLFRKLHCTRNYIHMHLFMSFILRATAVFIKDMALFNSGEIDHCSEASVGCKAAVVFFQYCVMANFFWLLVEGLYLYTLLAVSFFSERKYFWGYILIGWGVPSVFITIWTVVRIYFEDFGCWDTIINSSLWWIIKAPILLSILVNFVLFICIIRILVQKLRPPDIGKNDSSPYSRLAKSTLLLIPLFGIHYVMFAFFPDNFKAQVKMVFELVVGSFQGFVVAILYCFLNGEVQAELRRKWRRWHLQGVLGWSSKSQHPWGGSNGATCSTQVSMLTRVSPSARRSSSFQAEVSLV
Kind of test: cell-based or functional assay.

Test [3] concerns the target T1, rat VPAC2 receptor. Kind of test: cell-based or functional assay.
Test [4] addresses T2, rat VPAC1 receptor. Kind of test: cell-based or functional assay. The source holds these as a separate data set.
In test [5] the target is T1, rat VPAC2 receptor. Kind of test: cell-based or functional assay. This is another data set of the same source.
A further test has as its target T3, human VPAC2 receptor (human, UniProt P41587 24-438).
T3 sequence (looked up): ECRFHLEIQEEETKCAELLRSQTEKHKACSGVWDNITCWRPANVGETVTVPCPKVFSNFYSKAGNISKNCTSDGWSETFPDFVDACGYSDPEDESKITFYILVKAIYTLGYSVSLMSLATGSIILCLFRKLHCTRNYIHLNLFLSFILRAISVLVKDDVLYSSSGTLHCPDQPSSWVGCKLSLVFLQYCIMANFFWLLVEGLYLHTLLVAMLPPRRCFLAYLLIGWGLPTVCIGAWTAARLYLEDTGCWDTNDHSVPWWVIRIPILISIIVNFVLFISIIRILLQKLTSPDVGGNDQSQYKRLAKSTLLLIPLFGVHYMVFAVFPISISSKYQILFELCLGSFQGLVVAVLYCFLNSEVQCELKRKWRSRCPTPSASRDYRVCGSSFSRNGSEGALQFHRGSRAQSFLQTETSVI
The experiment in a line: cell-based or functional assay.

For the molecule Hexanoyl-HSDAVFTDNYTRLR[Aib]QVAA[Aib]KYLQSIKNKRYGGPSSGAPPPS (ends and bridges not checked) [P261], the “VPAC1/VPAC2 (ratio of IC50 values)” value with rat VPAC2 receptor [1] worked out at 363. The results for the “EC50 cAMP, DiscoveRx” value with rat VPAC1 receptor [2] and with rat VPAC2 receptor [3] were 0.35 nM and 0.04 nM, respectively. Besides, the results for the cAMP max in the test with rat VPAC1 receptor [4] and with rat VPAC2 receptor [5] were 126 and 78.5, respectively. Moreover, the “VPAC1/VPAC2 (EC50 ratio)” value in the test with rat VPAC2 receptor [5] was determined as 200. In the test with human VPAC2 receptor, the “EC50 cAMP, Alpha Screen” value turned out to be 0.09 nM.

Hexanoyl-HSDAVFTDNYTRLR[Aib]QLAA[Aib]KYLQSIKNKGGPSSGAPPPS (ends and bridges not checked) [P292]: the “VPAC1/VPAC2 (ratio of IC50 values)” value with rat VPAC2 receptor [1] came to 269. Besides, the “EC50 cAMP, DiscoveRx” value with rat VPAC1 receptor [2] was found to be 1.91 nM; with rat VPAC2 receptor [3], 0.07 nM. Besides, the cAMP max was determined as 124 in the test with rat VPAC1 receptor [4] and 79.1 in the test with rat VPAC2 receptor [5]. In addition, in the test with rat VPAC2 receptor [5], the “VPAC1/VPAC2 (EC50 ratio)” value is 100. Further, the “EC50 cAMP, Alpha Screen” value with human VPAC2 receptor is 0.23 nM.
